{"source": "paper PMC11760825", "about": "“Prohibitin 1 tethers lipid membranes and regulates OPA1-mediated membrane fusion” (The Journal of Biological Chemistry, 2024)", "proteins": {"B1": {"name": "recombinant human prohibitin 1 (PHB1), C-terminally histidine-tagged, wild type (natural protein, UniProt P35232 1-272, looked up)", "chain": "MAAKVFESIGKFGLALAVAGGVVNSALYNVDAGHRAVIFDRFRGVQDIVVGEGTHFLIPWVQKPIIFDCRSRPRNVPVITGSKDLQNVNITLRILFRPVASQLPRIFTSIGEDYDERVLPSITTEILKSVVARFDAGELITQRELVSRQVSDDLTERAATFGLILDDVSLTHLTFGKEFTEAVEAKQVAQQEAERARFVVEKAEQQKKAAIISAEGDSKAAELIANSLATAGDGLIELRKLEAAEDIAYQLSRSRNITYLPAGQSVLLQLPQ"}}, "molecular_target": "the molecule itself", "assay": "cell-based or functional assay"}
{"protein": "B1", "values": [{"measurement": "OPA1-mediated liposome fusion (FRET lipid mixing; 0.5 μM L-OPA1 with 2 μM PHB1 against L-OPA1 alone; fusion activity from the first 2 min)", "value": "~3", "unit": "fold"}]}
